This note sets out measurements from PMC8361696, “Regulation of aquaporin‐4 expression in the central nervous system investigated using M23‐AQP4 null mouse” (Glia, 2021).

This data set deals with the molecule itself. Kind of data set: native gel or EMSA; blue native PAGE (3-9% gradient) of 50 ug spinal cord lysate in BN buffer (1% Triton X-100, 12 mM NaCl, 500 mM 6-aminohexanoic acid, 20 mM Bis-Tris pH 7.0), immunoblot with anti-AQP4. A general note: Mobility shift assays separate free from complexed probe on a gel.

B1: M1-AQP4 (M23I) of M23-null mouse spinal cord (natural protein, mouse (endogenous in spinal cord), UniProt P55088 1-323, looked up)
chain: MSDGAAARRWGKCGHSCSRESIIVAFKGVWTQAFWKAVSAEFLATLIFVLLGVGSTINWGGSENPLPVDMVLISLCFGLSIATMVQCFGHISGGHINPAVTVAMVCTRKISIAKSVFYIIAQCLGAIIGAGILYLVTPPSVVGGLGVTTVHGNLTAGHGLLVELIITFQLVFTIFASCDSKRTDVTGSIALAIGFSVAIGHLFAINYTGASMNPARSFGPAVIMGNWANHWIYWVGPIMGAVLAGALYEYVFCPDVELKRRLKEAFSKAAQQTKGSYMEVEDNRSQVETEDLILKPGVVHVIDIDRGEEKKGKDSSGEVLSSV
notes: mouse aquaporin-4, M1-AQP4 isoform with the methionine codon at position 23 replaced by isoleucine, so no M23-AQP4 is made; The mouse model is described in de Bellis et al., 2020; also called M1M23I; AQP4 of M23-null mice; source: endogenous, M23-null (CRISPR/Cas9 M23I knock-in) mouse spinal cord, lysate in BN buffer (1% Triton X-100)
By stoichiometry N is commonly meant the number of molecules, sites or subunits per partner or assembly. Take B1: the “stoichiometry N” value stood at 4.
